Laboratory results from patent US20070178095A1 (Eli Lilly, published 2007).
Changes are numbered by the printed parent chain. Values belong to the binder of their own block, whether it stands above or below them.

What was measured:
[1] = molecular target: T1, peptide immunogen ANYCSGESEFVFLQKYPHTHLVHQA (human); assay: ELISA, peptide coated at 2 ug/ml, Fab 0.016-10 ug/ml
T1 construct: For immunization it was conjugated to KLH and a helper T-cell peptide; also called immunogenic peptide; immunogenic polypeptide
T1 peptide: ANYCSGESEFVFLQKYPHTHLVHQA
Experimental: Each well of two 96-well plates is coated with 70 μl of the peptide immunogen used to generate the Fabs (2 μg/ml in carbonate buffer, pH 9.6). The plates are incubated in a dry oven at 37° C. overnight with the lids removed. The wells are aspirated and washed twice with washing buffer (20 mM Tris (hydroxymethyl) aminomethane, pH 7.4, 0.15 M NaCl, 0.1% Tween-20). The plates are blocked with 200 μl blocking buffer per well (5% BioRad blotting grade milk in the above washing buffer) for 2.5 hours.
The Fabs are diluted into blocking buffer at 10 μg/ml, 2 μg/ml, 0.4 μg/ml, 0.08 μg/ml, and 0.016 μg/ml. A rat anti-myostatin monoclonal antibody (R&D Systems, catalog #MAB788, clone #84214) and a polyclonal anti-myostatin antibody (R&D Systems, catalog #AF788), are used as controls at the above concentrations and are also diluted in blocking buffer. Fifty microliters of each antibody solution is added to the peptide-coated wells in duplicate. The plates are incubated for 1.5 hours at room temperature. The wells are then washed 3 times with washing buffer.
Peroxidase-conjugated secondary antibody (50 μl goat anti-mouse kappa HRP (Southern Biotech) for Fabs, 50 μl mouse anti-rat (Jackson ImmunoResearch) for monoclonal, 50 μl rabbit anti-goat (Jackson ImmunoResearch) for polyclonal, all diluted 1:2000 in blocking buffer is added to each well and incubated for 1 hour at room temperature. The wells are then washed 3 times with washing buffer. Fifty microliters of chromogenic substrate (i.e., OPD substrate) is added to each well and allowed to develop at room temperature for 10 minutes. The reaction is stopped by adding 100 μl 1N HCl to each well. The absorbance of the wells is read at 490 nm.

[2] = molecular target: T2, recombinant mouse myostatin (R&D systems, Cat. #788-G8/CF, carrier-free) (mouse, UniProt O08689 268-376); assay: ELISA, growth factor coated at 10 ug/ml, Fab at 10 ug/ml, mean of duplicate wells
T2 construct: mature; also called GDF-8; GDF-8/myostatin
T2 sequence (looked up): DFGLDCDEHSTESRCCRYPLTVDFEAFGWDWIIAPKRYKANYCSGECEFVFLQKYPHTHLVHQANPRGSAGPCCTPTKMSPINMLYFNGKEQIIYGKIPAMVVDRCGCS
Experimental: (§1) Peroxidase-conjugated secondary antibody (50 μl goat anti-mouse kappa HRP (Southern Biotech) for the Fabs, 50 μl rabbit anti-goat (Jackson ImmunoResearch) for the polyclonal, diluted 1:2000 in blocking buffer) is added to each well and incubated for 1 hour at room temperature. The wells are then washed 3 times with washing buffer. Fifty microliters of chromogenic substrate (i.e., OPD substrate) is added to each well and allowed to develop at room temperature for 10 minutes. The reaction is stopped by adding 100 μl 1N HCl to each well. The absorbance of the wells is read at 490 nm.

[3] = molecular target: T3, recombinant human GDF-11 (Peprotech, Inc., Cat. # 120-11, carrier-free) (human, UniProt O95390 299-407); assay: as above
T3 construct: also called BMP-11
T3 sequence (looked up): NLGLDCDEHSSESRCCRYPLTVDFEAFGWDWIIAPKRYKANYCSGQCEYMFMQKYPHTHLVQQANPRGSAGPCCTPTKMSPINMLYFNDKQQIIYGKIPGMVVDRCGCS
Experimental: as §1

[4] = molecular target: T4, IGF-1 (R&D Systems 291-G1) (UniProt P05019 49-118); assay: as above
T4 construct: Negative control antigen
T4 sequence (P05019 49-118 limits assumed): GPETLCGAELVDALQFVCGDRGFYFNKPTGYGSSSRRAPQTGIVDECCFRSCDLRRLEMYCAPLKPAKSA
Experimental: as §1

[5] = molecular target: BMP-2 (R&D Systems 355-BEC/CF) (UniProt P12643 283-396); assay: as above
Sequence of BMP-2 (R&D Systems 355-BEC/CF) (P12643 283-396 limits assumed): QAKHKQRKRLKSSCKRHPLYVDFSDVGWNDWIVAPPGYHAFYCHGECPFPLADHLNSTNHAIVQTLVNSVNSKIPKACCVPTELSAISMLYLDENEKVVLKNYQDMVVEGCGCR
Experimental: as §1

[6] = molecular target: T5, BMP-5 (R&D Systems 615-BM) (UniProt P22003 317-454, limits assumed); assay: as above
T5 sequence (looked up): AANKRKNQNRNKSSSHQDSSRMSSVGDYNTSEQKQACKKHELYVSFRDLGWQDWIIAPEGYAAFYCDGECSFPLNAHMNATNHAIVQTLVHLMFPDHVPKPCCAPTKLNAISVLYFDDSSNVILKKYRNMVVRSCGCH
Experimental: as §1

[7] = molecular target: T6, BMP-6 (R&D Systems 507-BP) (UniProt P22004 382-513, limits assumed); assay: as above
T6 sequence (looked up): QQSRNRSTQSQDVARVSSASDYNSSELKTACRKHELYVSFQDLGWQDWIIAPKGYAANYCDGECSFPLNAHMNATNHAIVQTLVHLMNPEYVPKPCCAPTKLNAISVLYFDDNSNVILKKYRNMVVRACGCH
Experimental: as §1

[8] = molecular target: T7, BMP-7 (R&D Systems 354-BP) (UniProt P18075 293-431); assay: as above
T7 sequence (looked up): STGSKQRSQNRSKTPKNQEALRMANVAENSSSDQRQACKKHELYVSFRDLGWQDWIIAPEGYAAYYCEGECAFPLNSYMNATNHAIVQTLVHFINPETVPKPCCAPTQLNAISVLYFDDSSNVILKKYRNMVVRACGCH
Experimental: as §1

[9] = molecular target: T8, Activin A (R&D Systems 338-AC) (UniProt P08476 311-426); assay: as above
T8 sequence (looked up): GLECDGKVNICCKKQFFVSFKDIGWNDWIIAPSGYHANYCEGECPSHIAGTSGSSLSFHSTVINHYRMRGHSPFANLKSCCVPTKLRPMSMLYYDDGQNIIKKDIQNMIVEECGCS
Experimental: as §1

[10] = molecular target: T9, Activin B (R&D Systems 659-AB) (UniProt P09529 293-407); assay: as above
T9 sequence (looked up): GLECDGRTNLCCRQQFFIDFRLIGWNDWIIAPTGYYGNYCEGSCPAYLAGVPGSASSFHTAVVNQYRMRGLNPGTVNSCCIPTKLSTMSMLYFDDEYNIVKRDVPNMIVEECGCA
Experimental: as §1

[11] = molecular target: TGF-alpha (R&D Systems 239-A) (UniProt P01135 40-89); assay: as above
Sequence of TGF-alpha (R&D Systems 239-A) (P01135 40-89 limits assumed): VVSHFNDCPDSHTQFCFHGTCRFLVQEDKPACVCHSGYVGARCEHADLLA
Experimental: as §1

[12] = molecular target: T10, TGF-beta1 (Peprotech, Inc. 100-21R) (UniProt P01137 279-390); assay: as above
T10 construct: also called TGF-b1
T10 sequence (P01137 279-390 limits assumed): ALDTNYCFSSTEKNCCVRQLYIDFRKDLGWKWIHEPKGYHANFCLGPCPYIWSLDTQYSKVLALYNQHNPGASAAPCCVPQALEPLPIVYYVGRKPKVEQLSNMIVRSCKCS
Experimental: as §1

[13] = molecular target: T11, TGF-beta2 (Peprotech, Inc. 100-35) (UniProt P61812 303-414); assay: as above
T11 construct: also called TGF-b2
T11 sequence (looked up): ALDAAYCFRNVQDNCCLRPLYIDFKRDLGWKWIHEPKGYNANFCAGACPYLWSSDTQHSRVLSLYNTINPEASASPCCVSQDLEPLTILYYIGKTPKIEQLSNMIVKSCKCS
Experimental: as §1

B1: Fab 8 (Fab, V domains shown)
VH: QVTLKESGPGILQSSQTLSLTCSLSGFSLRTSGMSVSWIRQSSGKGLEWLAHIYWDDDKRYNPSLRNRLTISKDTLRNQVFLKITSVGTADTATYYCARRAITTVIGGGTMDYWGQGTSVTVSS
VL: QIVLTQSPAIMSASPGEKVTMTCSASSSVSYMHWYQQKSGTSPKRWIYDTSKLASGVPARFSGSGSGTSYSLTISSMEAEDAATYYCQQWSSNPLTFGAGTKLELKR
notes: Mouse Fab, kappa light chain; also called anti-myostatin Fab 8
binding result [1]: binds

B2: Fab 7 (Fab, V domains shown)
VH: QVTLKSGPGILQSSQTLTLTCSLSGFSLTTSGMIVSWIRQSSGRGLEWLAHIYWDDDKRYNPSLRNRLTISKDTLRNQVFLWISSVGTADTATYYCARRAITTVIGGGTMDYWGQGTSVTVSS
VL: B1 VL with V29I, S39P, S91Y
notes: Mouse Fab, kappa light chain; also called anti-myostatin Fab 7
absorbance at 490 nm [2]: 0.358 OD 490 nm
absorbance at 490 nm [3]: 0.04 OD 490 nm
absorbance at 490 nm [4]: 0.034 OD 490 nm
absorbance at 490 nm [5]: 0.0335 OD 490 nm
absorbance at 490 nm [6]: 0.0345 OD 490 nm
absorbance at 490 nm [7]: 0.035 OD 490 nm
absorbance at 490 nm [8]: 0.031 OD 490 nm
absorbance at 490 nm [9]: 0.0325 OD 490 nm
absorbance at 490 nm [10]: 0.031 OD 490 nm
absorbance at 490 nm [11]: 0.0315 OD 490 nm
absorbance at 490 nm [12]: 0.032 OD 490 nm
absorbance at 490 nm [13]: 0.0345 OD 490 nm

B3: Fab 3 (Fab, V domains shown)
VH: B1 VH
VL: B1 VL with V29I, S39P, S91Y
notes: Mouse Fab from a Biosite Omniclonal library, kappa light chain (detected or captured with goat anti-mouse kappa); also called anti-myostatin Fab 3
binding result [1]: binds
absorbance at 490 nm [2]: 0.419 OD 490 nm
absorbance at 490 nm [3]: 0.0705 OD 490 nm
absorbance at 490 nm [4]: 0.034 OD 490 nm
absorbance at 490 nm [5]: 0.0345 OD 490 nm
absorbance at 490 nm [6]: 0.034 OD 490 nm
absorbance at 490 nm [7]: 0.0335 OD 490 nm
absorbance at 490 nm [8]: 0.033 OD 490 nm
absorbance at 490 nm [9]: 0.033 OD 490 nm
absorbance at 490 nm [10]: 0.032 OD 490 nm
absorbance at 490 nm [11]: 0.033 OD 490 nm
absorbance at 490 nm [12]: 0.034 OD 490 nm
absorbance at 490 nm [13]: 0.034 OD 490 nm

B4: Fab 14 (Fab, V domains shown)
VH: B1 VH
VL: B1 VL with S39P, S91Y
notes: Mouse Fab, kappa light chain; also called anti-myostatin Fab 14
binding result [1]: binds

B5: Fab 11 (Fab, V domains shown)
VH: B1 VH
VL: B1 VL with V29I, S39P, S91N
notes: Mouse Fab, kappa light chain; also called anti-myostatin Fab 11
binding result [1]: binds

Results, then the binder that gave them:

binding result [1]: binds
absorbance at 490 nm [2]: 0.202 OD 490 nm
absorbance at 490 nm [3]: 0.034 OD 490 nm
absorbance at 490 nm [4]: 0.035 OD 490 nm
absorbance at 490 nm [5]: 0.032 OD 490 nm
absorbance at 490 nm [6]: 0.033 OD 490 nm
absorbance at 490 nm [7]: 0.0325 OD 490 nm
absorbance at 490 nm [8]: 0.032 OD 490 nm
absorbance at 490 nm [9]: 0.033 OD 490 nm
absorbance at 490 nm [10]: 0.033 OD 490 nm
absorbance at 490 nm [11]: 0.033 OD 490 nm
absorbance at 490 nm [12]: 0.0325 OD 490 nm
absorbance at 490 nm [13]: 0.034 OD 490 nm
B6: Fab 5 (Fab, V domains shown)
VH: B1 VH with L24F, R30S, N67S, L76S, G88D, A101G, I106L
VL: B1 VL with I2V, P15L, S30H
notes: Mouse Fab, kappa light chain; also called anti-myostatin Fab 5

binding result [1]: binds
B7: Fab 15 (Fab, V domains shown)
VH: B1 VH
VL: B1 VL with K18E, V29I, S30N, S91N, A99G
notes: Mouse Fab, kappa light chain; also called anti-myostatin Fab 15

binding result [1]: binds
B8: Fab 10 (Fab, V domains shown)
VH: B1 VH with S14P, K59E
VL: B1 VL with I2V, V29I, S39P, S91Y
notes: Mouse Fab, kappa light chain; also called anti-myostatin Fab 10

binding result [1]: binds
B9: Fab 12 (Fab, V domains shown)
VH: B1 VH with I11M
VL: B1 VL with I2V, S30Y, K38R, T41A, S91T, S92Y
notes: Mouse Fab, kappa light chain; also called anti-myostatin Fab 12
